Experimental findings from paper PMC11784312 (Journal of Virology, 2024) are described below.

Experiment [1] addresses SD008 HA expressed from pcDNA 3.1-SD008-HA (Influenza A virus …, UniProt A0A2D0Z8H0, strain). The experiment in a line: immunostaining of cells or tissue. As to conditions: one partner purified.
For experiment [2], the target named is T1, hemagglutinin of A/chicken/Guangdong/SD008/2017 (H7N9) (Influenza A virus …, UniProt A0A2D0Z8H0, strain). The experiment in a line: ELISA. As to conditions: both partners purified. (In general: ELISA stands for enzyme-linked immunosorbent assay.)
Experiment [3] addresses T1, hemagglutinin of …. Description: flow cytometry on cells. The note with it: one partner purified.

Substitutions are numbered along the chain they refer to.

B1: 2D7 neutralizing antibody (antibody, V domains shown)
VH: VQLQESGPGLVKPSQSLSLTCTVTGYSITSDYTWNWIRQFPGNKLEWMGYISYSGSTSYNPSLKSRMSITRDTSKNQFLLQLNSVTTADTATYYCTRDGPYWHIDVWGAGTTVTVSS
VL: DIQMNQSPSSLSASLGDTITITCHASQTINIWLSWYQLKPGNIPKLLIYKASNLHTGVPSRFSGSGSGTGFTLTISSLQPEDIASYYCQQGQSFPYTFGGGTKLEIK
notes: whole murine IgG
Regarding B1, the binding result in experiment [1] and in experiment [2] was “binds” each time.

B2: 1H9 neutralizing antibody (antibody, V domains shown)
VH: VQLQESGPGLVKPSQSLSLTCTVTGYSITSDYTWNWIRQFPGNKLEWMGYITYSDTTSYNPSLKSRISITRDTSKNQFFLQLNSVTTEDTATYYCARSDGWYGFAYWGQGTLVTVSA
VL: B1 VL with T28N, I31V, L38Q, S52F, N53D, S85T, S93T, F94Y, Y96F
notes: also called nAb 1H9; source: mouse hybridoma, ascites of BALB/c mice, purified (protein G agarose)
For B2, the binding result in experiment [3] and in experiment [1] was “binds” in each case.
